Source: PMC10397247

Key:
[1] = target: T1, 4H2330-AA; test: two-hybrid library CCmax;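 further: natural log of median RNA to DNA barcode read ratio; higher means stronger binding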
T1 chain: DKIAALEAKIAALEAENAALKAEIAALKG

[2] = target: T2, 4H2343-AA; test: two-hybrid library CCmax; conditions: mean of both orientations;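 further: natural log of median RNA to DNA barcode read ratio; higher means stronger binding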
T2 chain: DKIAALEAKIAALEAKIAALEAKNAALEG

[3] = target: T3, 4H2389-AA; test: two-hybrid library CCmax; conditions: mean of both orientations;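 further: natural log of median RNA to DNA barcode read ratio; higher means stronger binding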
T3 chain: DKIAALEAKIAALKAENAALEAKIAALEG

[4] = target: T4, 4H2438-AA; test: two-hybrid library CCmax; conditions: mean of both orientations;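 further: natural log of median RNA to DNA barcode read ratio; higher means stronger binding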
T4 chain: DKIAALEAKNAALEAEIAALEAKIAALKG

[5] = target: T5, 4H2466-AA; test: two-hybrid library CCmax; conditions: mean of both orientations
T5 chain: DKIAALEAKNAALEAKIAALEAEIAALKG

[6] = target: T6, 4H2473-AA; test: two-hybrid library CCmax; conditions: mean of both orientations
T6 chain: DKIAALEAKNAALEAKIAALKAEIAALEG

[7] = target: T7, 4H249-AA; test: two-hybrid library CCmax; conditions: mean of both orientations
T7 chain: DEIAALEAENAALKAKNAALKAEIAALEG

[8] = target: T8, 4H2592-AA; test: two-hybrid library CCmax; conditions: mean of both orientations
T8 chain: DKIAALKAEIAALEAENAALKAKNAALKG

[9] = target: T9, 4H2649-AA; test: two-hybrid library CCmax; conditions: mean of both orientations
T9 chain: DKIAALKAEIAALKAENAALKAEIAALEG

[10] = target: T10, 4H2698-AA; test: two-hybrid library CCmax; conditions: mean of both orientations
T10 chain: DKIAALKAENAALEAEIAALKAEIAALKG

[11] = target: T11, 4H2725-AA; test: two-hybrid library CCmax; conditions: mean of both orientations
T11 chain: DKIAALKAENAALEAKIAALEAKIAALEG

[12] = target: T12, 4H2732-AA; test: two-hybrid library CCmax; conditions: mean of both orientations
T12 chain: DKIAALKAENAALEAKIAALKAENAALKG

[13] = target: T13, 4H2774-AA; test: two-hybrid library CCmax; conditions: mean of both orientations
T13 chain: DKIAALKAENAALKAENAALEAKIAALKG

[14] = target: T14, 4H2865-AA; test: two-hybrid library CCmax; conditions: mean of both orientations
T14 chain: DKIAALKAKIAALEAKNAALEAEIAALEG

[15] = target: T15, 4H2931-AA; test: two-hybrid library CCmax; conditions: mean of both orientations
T15 chain: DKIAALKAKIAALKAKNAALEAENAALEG

[16] = target: T16, 4H3001-AA; test: two-hybrid library CCmax; conditions: mean of both orientations
T16 chain: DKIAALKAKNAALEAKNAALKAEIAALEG

[17] = target: T17, 4H3009-AA; test: two-hybrid library CCmax; conditions: mean of both orientations
T17 chain: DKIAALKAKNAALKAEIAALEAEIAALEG

[18] = target: T18, 4H3015-AA; test: two-hybrid library CCmax; conditions: mean of both orientations
T18 chain: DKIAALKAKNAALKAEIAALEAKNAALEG

[19] = target: T19, 4H3016-AA; test: two-hybrid library CCmax; conditions: mean of both orientations
T19 chain: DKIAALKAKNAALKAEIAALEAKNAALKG

[20] = target: T20, 4H3073-AA; test: two-hybrid library CCmax; conditions: mean of both orientations
T20 chain: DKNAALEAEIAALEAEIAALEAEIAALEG

[21] = target: T21, 4H310-AA; test: two-hybrid library CCmax; conditions: mean of both orientations
T21 chain: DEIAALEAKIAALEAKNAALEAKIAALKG

[22] = target: T22, 4H3120-AA; test: two-hybrid library CCmax; conditions: mean of both orientations
T22 chain: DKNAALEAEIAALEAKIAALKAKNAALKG

[23] = target: T23, 4H3130-AA; test: two-hybrid library CCmax; conditions: mean of both orientations
T23 chain: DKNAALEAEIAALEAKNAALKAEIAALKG

[24] = target: T24, 4H3165-AA; test: two-hybrid library CCmax; conditions: mean of both orientations
T24 chain: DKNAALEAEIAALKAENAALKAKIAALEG

[25] = target: T25, 4H3381-AA; test: two-hybrid library CCmax; conditions: mean of both orientations
T25 chain: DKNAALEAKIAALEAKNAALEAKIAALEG

[26] = target: T26, 4H3395-AA; test: two-hybrid library CCmax; conditions: mean of both orientations
T26 chain: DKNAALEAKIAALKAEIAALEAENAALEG

[27] = target: T27, 4H3410-AA; test: two-hybrid library CCmax; conditions: mean of both orientations
T27 chain: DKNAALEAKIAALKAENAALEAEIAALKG

[28] = target: T28, 4H3438-AA; test: two-hybrid library CCmax; conditions: mean of both orientations
T28 chain: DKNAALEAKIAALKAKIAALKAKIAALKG

[29] = target: T29, 4H347-AA; test: two-hybrid library CCmax; conditions: mean of both orientations
T29 chain: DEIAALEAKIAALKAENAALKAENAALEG

[30] = target: T30, 4H3590-AA; test: two-hybrid library CCmax; conditions: mean of both orientations
T30 chain: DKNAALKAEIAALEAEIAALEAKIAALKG

[31] = target: T31, 4H3697-AA; test: two-hybrid library CCmax; conditions: mean of both orientations
T31 chain: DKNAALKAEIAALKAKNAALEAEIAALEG

[32] = target: T32, 4H3753-AA; test: two-hybrid library CCmax; conditions: mean of both orientations
T32 chain: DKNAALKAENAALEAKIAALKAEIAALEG

[33] = target: T33, 4H3865-AA; test: two-hybrid library CCmax; conditions: mean of both orientations
T33 chain: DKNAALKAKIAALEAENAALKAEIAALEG

[34] = target: T34, 4H406-AA; test: two-hybrid library CCmax; conditions: mean of both orientations
T34 chain: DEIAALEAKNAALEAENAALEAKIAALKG

[35] = target: T35, 4H452-AA; test: two-hybrid library CCmax; conditions: mean of both orientations
T35 chain: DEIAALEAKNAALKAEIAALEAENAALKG

[36] = target: T36, 4H458-AA; test: two-hybrid library CCmax; conditions: mean of both orientations
T36 chain: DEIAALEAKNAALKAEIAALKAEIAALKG

[37] = target: T37, 4H485-AA; test: two-hybrid library CCmax; conditions: mean of both orientations
T37 chain: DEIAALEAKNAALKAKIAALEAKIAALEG

[38] = target: T38, 4H536-AA; test: two-hybrid library CCmax; conditions: mean of both orientations
T38 chain: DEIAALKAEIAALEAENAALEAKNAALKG

[39] = target: T39, 4H56-AA; test: two-hybrid library CCmax; conditions: mean of both orientations
T39 chain: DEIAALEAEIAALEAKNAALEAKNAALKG

[40] = target: T40, 4H570-AA; test: two-hybrid library CCmax; conditions: mean of both orientations
T40 chain: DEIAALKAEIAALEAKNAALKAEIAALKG

[41] = target: T41, 4H629-AA; test: two-hybrid library CCmax; conditions: mean of both orientations
T41 chain: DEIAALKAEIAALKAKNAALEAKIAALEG

[42] = target: T42, 4H710-AA; test: two-hybrid library CCmax; conditions: mean of both orientations
T42 chain: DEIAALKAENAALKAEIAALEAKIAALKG

[43] = target: T43, 4H745-AA; test: two-hybrid library CCmax; conditions: mean of both orientations
T43 chain: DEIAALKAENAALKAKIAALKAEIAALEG

[44] = target: T44, 4H797-AA; test: two-hybrid library CCmax; conditions: mean of both orientations
T44 chain: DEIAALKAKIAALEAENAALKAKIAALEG

[45] = target: T45, 4H850-AA; test: two-hybrid library CCmax; conditions: mean of both orientations
T45 chain: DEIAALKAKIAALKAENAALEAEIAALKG

[46] = target: T46, 4H891-AA; test: two-hybrid library CCmax; conditions: mean of both orientations
T46 chain: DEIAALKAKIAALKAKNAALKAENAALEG

[47] = target: T47, 4H909-AA; test: two-hybrid library CCmax; conditions: mean of both orientations
T47 chain: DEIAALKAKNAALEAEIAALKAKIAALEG

[48] = target: T48, 4H930-AA; test: two-hybrid library CCmax; conditions: mean of both orientations
T48 chain: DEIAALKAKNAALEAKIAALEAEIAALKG

[49] = target: T49, 4H94-AA; test: two-hybrid library CCmax; conditions: mean of both orientations
T49 chain: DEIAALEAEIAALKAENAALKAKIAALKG

[50] = target: T50, 4H_APH; test: two-hybrid library CCmax; conditions: mean of both orientations
T50 chain: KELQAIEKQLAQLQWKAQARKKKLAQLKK

[51] = target: T51, 4H_BCR; test: two-hybrid library CCmax; conditions: mean of both orientations
T51 chain: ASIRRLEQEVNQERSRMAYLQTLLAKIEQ

[52] = target: 4H_GCN4; test: two-hybrid library CCmax; conditions: mean of both orientations
[53] = target: GCN2_T; test: two-hybrid library CCmax; conditions: mean of both orientations
[54] = target: T52, 4H3606-bH; test: two-hybrid library CCNG1; conditions: mean of both orientations
T52 chain: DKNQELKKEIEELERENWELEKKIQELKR

[55] = target: T53, 4H370-bH; test: two-hybrid library CCNG1
T53 chain: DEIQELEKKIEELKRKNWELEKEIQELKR

[56] = target: T54, 4H3782-bH; test: two-hybrid library CCNG1
T54 chain: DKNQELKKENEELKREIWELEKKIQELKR

[57] = target: T55, 4H3843-bH; test: two-hybrid library CCNG1
T55 chain: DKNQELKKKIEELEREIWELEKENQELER

[58] = target: T56, 4H4001-bH; test: two-hybrid library CCNG1
T56 chain: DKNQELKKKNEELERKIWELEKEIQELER

[59] = target: T57, 4H462-bH; test: two-hybrid library CCNG1
T57 chain: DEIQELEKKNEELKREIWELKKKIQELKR

[60] = target: T58, 4H568-bH; test: two-hybrid library CCNG1
T58 chain: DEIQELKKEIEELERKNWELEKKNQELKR

[61] = target: T59, 4H607-bH; test: two-hybrid library CCNG1
T59 chain: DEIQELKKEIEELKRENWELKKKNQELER

[62] = target: T60, 4H687-bH; test: two-hybrid library CCNG1
T60 chain: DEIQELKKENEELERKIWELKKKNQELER

[63] = target: T61, 4H72-bH; test: two-hybrid library CCNG1
T61 chain: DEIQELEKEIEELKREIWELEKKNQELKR

[64] = target: T62, 4H797-bH; test: two-hybrid library CCNG1
T62 chain: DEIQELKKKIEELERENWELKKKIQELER

[65] = target: T63, 4H883-bH; test: two-hybrid library CCNG1
T63 chain: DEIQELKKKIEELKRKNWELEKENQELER

[66] = target: T64, 4H918-bH; test: two-hybrid library CCNG1
T64 chain: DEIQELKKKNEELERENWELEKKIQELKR

[67] = target: T65, 4H953-bH; test: two-hybrid library CCNG1
T65 chain: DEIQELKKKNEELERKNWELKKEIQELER

[68] = target: T66, 4H967-bH; test: two-hybrid library CCNG1
T66 chain: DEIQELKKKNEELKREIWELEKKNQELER

Chain of 4H_GCN4 (chain, as listed by the source): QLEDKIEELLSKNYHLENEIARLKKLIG

DKIAALEAKIAALEAENAALKAEIAALKG [4H2330-AA]
interaction score [1]: 2.14 | interaction score [2]: -1.3 | interaction score [3]: -0.00244 | interaction score [4]: -0.853 | interaction score [5]: -1.14 | interaction score [6]: -0.502 | interaction score [7]: -1.48 | interaction score [8]: -0.144 | interaction score [9]: 0.31 | interaction score [10]: -1.05 | interaction score [11]: -1.57 | interaction score [12]: -1.45 | interaction score [13]: -1.55 | interaction score [14]: -0.443 | interaction score [15]: -1.63 | interaction score [16]: -1.21 | interaction score [17]: -1.35 | interaction score [18]: -1.54 | interaction score [19]: -1.44 | interaction score [20]: -1.5 | interaction score [21]: -0.633 | interaction score [22]: -1.29 | interaction score [23]: 0.306 | interaction score [24]: -1.39 | interaction score [25]: -1.67 | interaction score [26]: -1.56 | interaction score [27]: 0.287 | interaction score [28]: -1.59 | interaction score [29]: -0.642 | interaction score [30]: -1.06 | interaction score [31]: -1.56 | interaction score [32]: -1.31 | interaction score [33]: 0.945 | interaction score [34]: -0.544 | interaction score [35]: -1.85 | interaction score [36]: -1.07 | interaction score [37]: -1.35 | interaction score [38]: -1.33 | interaction score [39]: -1.47 | interaction score [40]: 0.717 | interaction score [41]: -1.21 | interaction score [42]: -1.49 | interaction score [43]: -1.42 | interaction score [44]: -0.788 | interaction score [45]: 1.43 | interaction score [46]: -1.54 | interaction score [47]: -1.17 | interaction score [48]: -1.22 | interaction score [49]: 0.579 | interaction score [50]: -2.24 | interaction score [51]: -2.26 | interaction score [52]: -1.88 | interaction score [53]: -1.77

DKNQELKKEIEELERENWELEKKIQELKR [4H3606-bH]
interaction score [54]: -0.593 | interaction score [55]: 1.69 | interaction score [56]: -0.967 | interaction score [57]: 0.511 | interaction score [58]: 0.174 | interaction score [59]: -0.116 | interaction score [60]: 1.11 | interaction score [61]: -0.729 | interaction score [62]: -0.48 | interaction score [63]: -0.306 | interaction score [64]: -0.0905 | interaction score [65]: 0.484 | interaction score [66]: -0.633 | interaction score [67]: -1.36 | interaction score [68]: 1.21
